# Tests used:
# [1] = test system: endogenous DNA-PKcs, NuMA and PARP in HeLa cell lysates; experiment: Cleavage of endogenous substrates in HeLa lysates after adding purified granzyme B, with caspase inhibitors; assay type: biochemical; settings: for cleavage of PARP: inhibitor added 15 minutes prior to 12.5 nM granzyme B, 100 nM Ac-DEVD-CHO or 2 mM iodoacetamide
# Method: (§1) Control HeLa lysates were prepared using methods commonly applied in the art, as described in Casciola-Rosen et al., 1994. […] The mixtures were incubated for 15 mn on ice to facilitate binding of the inhibitors to proteases prior to performing cleavage reactions at 37° C. for 60 min. After electrophoresing the samples on 10% SDS-polyacrylamide gels containing 0.087% bisacrylamide, the intact proteins and their cleaved fragments were visualized by immunoblotting.
# [2] = biological target: caspase-8 (Homo sapiens, UniProt Q14790); experiment: Cleavage of substrates by purified caspase-8; assay type: biochemical; settings: 50 nM purified caspase-8; HeLa lysates treated with iodoacetamide, or radiolabeled IvTT substrate
# Chain of caspase-8 (Q14790 217-374 limits assumed, species assumed): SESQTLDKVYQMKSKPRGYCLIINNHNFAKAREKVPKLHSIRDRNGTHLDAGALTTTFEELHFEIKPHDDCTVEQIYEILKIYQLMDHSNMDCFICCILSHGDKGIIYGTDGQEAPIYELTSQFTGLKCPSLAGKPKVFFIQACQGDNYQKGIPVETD
# Chain of caspase-8 (Q14790 385-479 limits assumed, species assumed): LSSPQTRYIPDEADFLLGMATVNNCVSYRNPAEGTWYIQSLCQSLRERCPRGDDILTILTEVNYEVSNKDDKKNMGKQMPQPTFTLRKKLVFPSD
# Method: To confirm that these substrates were not cleaved by group III caspases, the substrates were incubated with 50 nM purified caspase-8. Cleavage assays were performed in HeLa cell lysates in which endogenous caspases had first been irreversibly inactivated by 1 mM iodoacetamide (4° C. for 15 min), prior to addition of 5 mM DTT to facilitate exogenous caspase-8 activity. No cleavage of topoisomerase-1, Mi-2, U1-70 kDa, PARP, Ku-70, RNA polymerase II large subunit, SRP-72, NuMA or Ki-67 occurred. Caspase-8 was indeed active in these lysates, as evidenced by robust caspase-3 cleavage products of PARP and U1-70 kDa seen when the IAA ‘poisoning’ step was omitted. Radiolabeled PMS1 and PMS2 (generated by IvTT) were also not cleaved by purified caspase-8.
# [3] = biological target: T1, granzyme B (Homo sapiens, UniProt P10144); experiment: Susceptibility of autoantigens to cleavage by purified granzyme B (HeLa lysate immunoblot or immunoprecipitates); assay type: biochemical; settings: in vitro
# T1 construct: Some of these preparations were used for the further purification of granzyme B (Tschopp, 1994); endogenous in cells; host or cells: YT cells (human NK cell line), cytoplasmic granules
# T1 sequence (P10144 21-247): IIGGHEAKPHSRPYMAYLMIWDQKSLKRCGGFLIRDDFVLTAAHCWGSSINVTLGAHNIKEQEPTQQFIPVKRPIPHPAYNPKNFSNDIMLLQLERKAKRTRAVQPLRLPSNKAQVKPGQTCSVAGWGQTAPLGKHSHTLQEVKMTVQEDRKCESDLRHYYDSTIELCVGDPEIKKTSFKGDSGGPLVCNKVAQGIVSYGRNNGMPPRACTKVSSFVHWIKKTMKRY
# Method: To determine whether susceptibility to direct cleavage by granzyme B was an isolated feature of PARP, NuMA and DNA-PKcs shown above, or whether it was a more general feature of autoantigens, a variety of well-defined autoantigens selected from across the spectrum of systemic autoimmune diseases were tested for susceptibility to cleavage by purified granzyume B. The efficiency of cleavage of the substrates by purified granzyme B was also noted (Table 3). Initially, a series of autoantibodies of well-defined specificity were used to immunoblot lysates of HeLa cells that had been incubated in vitro with or without granzyme B. Lysates were pre-treated with iodoacetamide (IAA) to prevent interference by endogenous caspase activity.
# To perform these studies, HeLa cells were radiolabeled with [^35S] methionine/cysteine, and proteins were immunoprecipitated using human autoantibodies. Protein A-agarose beads containing washed precipitated proteins were resuspended in buffer supporting the activity of granzyme B, and incubated in the absence or presence of added purified granzyme B. Reaction products were visualized using SDS-PAGE and fluorography. To confirm the validity of this approach, several different autoantigens known to be cleaved by granzyme B, as well as several autoantigens and non-autoantigens that are not cleaved by granzyme B, were tested. Using autoantibodies that both immunoblot and immunprecipitate, the cleavage profiles obtained using granzyme B to cleave molecules in lysates (followed by detection with immunoblotting), and after immunoprecipitation (from [^35S]methionine-labeled HeLa lysate) were compared. Identical results were obtained using these 2 methods for cleaved autoantigens (topoisomerase-1, Mi-2, RNA polymerase II large subunit, Ku-70, PARP, and NOR-90), uncleaved autoantigens (Ku-80, Ro 60k), and control substrates (β-tubulin, vinculin). […] Of note, all these additional autoantigens (with the exception of RNA polymerase I) are targeted in autoimmune myositis. However, two other tRNA synthetases (threonyl tRNA synthetase and glycyl tRNA synthetase) that are also autoantigens in autoimmune myositis, were not cleaved using this approach.
# [4] = test system: K562 cells; experiment: Substrate cleavage in intact K562 cells during YT cell granule content-induced cytotoxicity; assay type: cell-based; settings: 100 μM Ac-DEVD-CHO
# Method: Intact cytoplasmic granules were purified from YT cells, and the granule contents were isolated using known methods (Tschopp, 1994). Some of these preparations were used for the further purification of granzyme B (Tschopp, 1994). Purity of the protease was confirmed by silver staining of overloaded SDS-polyacrylamide gels. The cytotoxic effects of YT granule contents were determined as follows: Jurkat T cells or K562 cells were radiolabeled with 100 μCi/ml [^51Cr] sodium chromate, washed, resuspended in Ca^2+-free HBSS, and then incubated with granule contents (0-5 μl) and 1 mM CaCl2 for increasing times. The percentage specific [^51Cr] was calculated using the following formula: % specific lysis=[(sample cpm−spontaneous cpm)/(maximum cpm−spontaneous cpm)]×100. […] Aliquots containing 3.4×10^5 cells were incubated for a further 90 min at 37° C. with 1 mM EDTA or 1 mM Ca^2+ and 2 μl of YT granule contents (which induces 20-40% specific chromium release in 60 min, and characteristic internucleosomal DNA degradation. The total reaction volume of each sample was 30 μl. The reactions were terminated by boiling in SDS gel buffer and samples were electrophoresed and immunoblotted as described above. Experiments were performed using 2 different preparations of granule contents and 4 different cell types (K562, Jurkat, HeLa, primary human myoblasts).
# [5] = test system: K562 erythroleukemia cells; experiment: Substrate cleavage in Fas-negative K562 target cells attacked by LAK cells; assay type: cell-based
# Method: LAK cells were obtained by culturing human PBMCs for 4 days in LAK medium (RPMI supplemented with 10 mM Hepes pH 7.4, L-glutamine, 2% autologous plasma), and 1000 Cetus units/ml of hrIL-2 (Chiron Therapeutics, Emeryville, Calif.) (Topalian et al., 1989). […] After 2 washes with PD, cells were lysed and boiled in SDS sample buffer, and PARP, DNA-PKcs and NuMA were assayed by immunoblotting as described above.
# [6] = test system: HeLa cells; experiment: Confocal immunofluorescence of morphologic changes in HeLa cells exposed to YT cell granule contents; assay type: cell-based; settings: 100 μM Ac-DEVD-CHO
# Method: Morphologic experiments were performed on HeLa cells grown on No. 1 glass coverslips. […] 25 μl of HBSS containing 2 mM CaCl2 was then added to each coverslip (mixed well by repeated, gentle aspiration), followed by incubation in a humidified chamber at 37° C. for 60 min. […] Coverslips were mounted on glass slides with Permafluor (Lipshaw, Pittsburgh, Pa.), and confocal microscopy was performed on a scanning confocal microscopy system (LSM 410, Carl Zeiss, Inc., Thornwood, N.J.).
# [7] = biological target: T2, caspase-3 (Homo sapiens, UniProt P42574); experiment: Cleavage of endogenous substrates in HeLa lysates by added purified caspase-3, with inhibitors; assay type: biochemical; settings: 100 nM inhibitor, HeLa lysate, 105 pM caspase-3, 37° C. 60 min
# T2 construct: made in house
# T2 sequence (P42574 29-175 limits assumed): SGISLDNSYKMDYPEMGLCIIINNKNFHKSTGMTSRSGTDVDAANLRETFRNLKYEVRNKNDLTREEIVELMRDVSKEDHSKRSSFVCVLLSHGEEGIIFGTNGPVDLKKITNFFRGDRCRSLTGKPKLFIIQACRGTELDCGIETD
# T2 sequence (P42574 176-277 limits assumed): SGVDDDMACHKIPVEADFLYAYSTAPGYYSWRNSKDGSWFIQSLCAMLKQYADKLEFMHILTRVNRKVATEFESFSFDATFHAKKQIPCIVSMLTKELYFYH
# Method: as §1
# [8] = biological target: T3, caspase-1 (Homo sapiens, UniProt P29466); settings: cited from earlier work
# T3 sequence (P29466 120-297 limits assumed): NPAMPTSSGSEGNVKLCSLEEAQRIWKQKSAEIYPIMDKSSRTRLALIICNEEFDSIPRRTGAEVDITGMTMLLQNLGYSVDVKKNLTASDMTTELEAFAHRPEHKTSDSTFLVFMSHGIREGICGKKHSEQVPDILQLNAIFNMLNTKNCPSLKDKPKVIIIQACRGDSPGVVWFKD
# T3 sequence (P29466 317-404 limits assumed): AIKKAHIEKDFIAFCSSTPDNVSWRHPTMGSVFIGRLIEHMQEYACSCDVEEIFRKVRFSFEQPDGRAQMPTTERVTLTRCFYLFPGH
# [9] = biological target: T2, caspase-3; settings: cited from earlier work
# [10] = biological target: T4, caspase-7 (Homo sapiens, UniProt P55210); settings: cited from earlier work
# T4 sequence (P55210 24-198 limits assumed): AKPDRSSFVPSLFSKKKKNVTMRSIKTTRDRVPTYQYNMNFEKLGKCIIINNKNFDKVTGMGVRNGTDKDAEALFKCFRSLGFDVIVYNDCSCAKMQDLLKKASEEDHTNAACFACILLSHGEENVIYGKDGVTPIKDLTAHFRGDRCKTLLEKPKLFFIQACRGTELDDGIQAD
# T4 sequence (P55210 207-303 limits assumed): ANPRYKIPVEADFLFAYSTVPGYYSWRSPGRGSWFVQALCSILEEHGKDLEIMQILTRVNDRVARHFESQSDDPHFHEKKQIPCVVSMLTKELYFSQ
# [11] = biological target: T5, caspase-10 (Homo sapiens, UniProt Q92851); settings: cited from earlier work
# T5 sequence (Q92851 220-415 limits assumed): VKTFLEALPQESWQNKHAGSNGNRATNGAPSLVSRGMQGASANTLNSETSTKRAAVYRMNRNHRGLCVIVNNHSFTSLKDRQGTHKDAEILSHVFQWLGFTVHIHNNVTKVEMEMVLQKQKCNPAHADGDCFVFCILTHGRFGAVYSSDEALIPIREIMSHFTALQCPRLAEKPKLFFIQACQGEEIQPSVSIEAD
# T5 sequence (Q92851 416-521 limits assumed): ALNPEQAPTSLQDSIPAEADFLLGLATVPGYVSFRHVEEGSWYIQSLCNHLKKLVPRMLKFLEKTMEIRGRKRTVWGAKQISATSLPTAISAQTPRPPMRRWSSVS
# [12] = 100 μM Ac-DEVD-CHO, LAK:K562 5:1
molecule,measurement,setting,value
NC(=O)CI [iodoacetamide],cleavage of PARP,[1],almost entirely abolished
KI-67: autoantigen,cleavage by caspase-8,[2],No cleavage
same,susceptibility to cleavage by granzyme B,[3],cleaved
Ku-70: autoantigen,cleavage by caspase-8,[2],No cleavage
same,susceptibility to cleavage by granzyme B,[3],efficiently cleaved
Ku-80: uncleaved autoantigen,susceptibility to cleavage by granzyme B,[3],uncleaved
N-(N-Ac-Asp-Glu-Val)-3-amino-4-oxobutanoic acid [Ac-DEVD-CHO],cleavage of PARP,[1],almost entirely abolished
same,generation of caspase-3-specific fragments of NuMA (185 kDa) and DNA-PKcs (150 kDa C-terminal),[1]; inhibitor added prior to granzyme B,abolished
same,generation of 150 kDa and 120 kDa DNA-PKcs fragments,[4]; YT granule contents,entirely inhibited
same,generation of the 89 kDa PARP fragment,[4]; YT granule contents plus Ca2+,completely inhibited
same,production of granzyme B-specific cleavage fragments of DNA-PKcs and NuMA,[4]; YT granule contents plus Ca2+,not inhibited
same,100 kDa granzyme B-specific fragment of DNA-PKcs,[5]; [12],insensitive
same,inhibition of generation of caspase-3-specific fragments of DNA-PKcs,[5]; [12],> 90%
same,PARP cleavage,"[5]; 100 μM Ac-DEVD-CHO, LAK:K562 5:1, 4 h",entirely abolished
same,cleavage of PMS1,"[5]; intact cell killing by LAK cells, Ac-DEVD-CHO added",unaffected
same,"granule content-induced surface blebbing, nuclear fragmentation, apoptotic bodies, redistribution of nuclear autoantigens",[6],prevented
N-(N-Ac-Tyr-Val-Ala)-3-amino-4-oxobutanoic acid [Ac-YVAD-CHO],substrate fragments generated by the activity of caspase-3,[7],unaffected
same,Ki,[8],0.0006 µM
same,Ki,[9],> 10 µM
same,Ki,[10],> 10 µM
same,Ki,[11],0.408 µM
PMS2: autoantigen,cleavage by caspase-8,[2],not cleaved
same,susceptibility to cleavage by granzyme B,[3],cleaved
RNA polymerase I: autoantigen,susceptibility to cleavage by granzyme B,[3],cleaved
Ro52 kDa: ribonucleoprotein autoantigen,susceptibility to cleavage by granzyme B,[3],not susceptible to cleavage
Ro 60k: ribonucleoprotein autoantigen,susceptibility to cleavage by granzyme B,[3],uncleaved
same,susceptibility to cleavage by granzyme B,[3]; listed as Ro 60 kDa,not susceptible to cleavage
Topoisomerase I: autoantigen,cleavage by caspase-8,[2],No cleavage
same,susceptibility to cleavage by granzyme B,[3]; listed as topoisomerase-1,efficiently cleaved
U1-70 kDa: autoantigen cleaved by caspases during apoptosis,cleavage by caspase-8,[2],No cleavage
same,susceptibility to cleavage by granzyme B,[3],efficiently cleaved
nuclear mitotic apparatus protein [NuMA],cleavage by caspase-8,[2],No cleavage
poly(ADP-ribose)polymerase [PARP],cleavage by caspase-8,[2],No cleavage
same,susceptibility to cleavage by granzyme B,[3],efficiently cleaved
"vinculin: control substrate, non-autoantigen [reference compound]",susceptibility to cleavage by granzyme B,[3],not cleaved

# Reference: US6855515B1, “Autoantigenic fragments, methods and assays” (Merck & Co., Inc., priority 1998, dated 2005)
